# B1: CD3 × CD33-BspAb116 (bispecific antibody)
# scFv-Fc: NFMLTQPHSVSESPGKTVTISCTRSSGSIASNYVQWYQQRPGSSPTTVIYEDNQRPSGVPDRFSGSIDSSSNSASLTISGLKTEDEAYYYCQSFDSSNRVFGCGTKLTVLGGGGSGGGGSGGGGSGGGGSQVQLQESGPGLVKPSQTLSLTCTVSGGSISSGGYYWSWIRQHPGKCLEWIGYIYYSGSTYYNPSLKSRVTISVDTSKDQFSLKLSSVTAADTAVYYCARERKTSLPFDIWGQGTMVTVSSGGGGSDKTHTCPPCPAPEFEGGPSVFLFPPKPKDTLMISRTPEVTCVVVDVSHEDPEVKFNWYVDGVEVHNAKTKPREEQYNSTYRVVSVLTVLHQDWLNGKEYKCKVSNKALPASIEKTISKAKGQPREPQVYTLPPCREEMTKNQVSLWCLVKGFYPSDIAVEWESNGQPENNYKTTPPVLDSDGSFFLYSKLTVDKSRWQQGNVFSCSVMHEALHNHYTQKSLSLSPGK
# heavy: EVQLVQSGAEVKKPGSSVKVSCKASGYTITDSNIHWVRQAPGQSLEWIGYIYPYNGGTDYNQKFKNRATLTVDNPTNTAYMELSSLRSEDTAFYYCVNGNPWLAYWGQGTLVTVSSASTKGPSVFPLAPSSKSTSGGTAALGCLVKDYFPEPVTVSWNSGALTSGVHTFPAVLQSSGLYSLSSVVTVPSSSLGTQTYICNVNHKPSNTKVDKRVEPKSCDKTHTCPPCPAPEFEGGPSVFLFPPKPKDTLMISRTPEVTCVVVDVSHEDPEVKFNWYVDGVEVHNAKTKPREEQYNSTYRVVSVLTVLHQDWLNGKEYKCKVSNKALPASIEKTISKAKGQPREPQVCTLPPSREEMTKNQVSLSCAVKGFYPSDIAVEWESNGQPENNYKTTPPVLDSDGSFFLVSKLTVDKSRWQQGNVFSCSVMHEALHNRFTQKSLSLSPGK
# light: DIQLTQSPSTLSASVGDRVTITCRASESLDNYGIRFLTWFQQKPGKAPKLLMYAASNQGSGVPSRFSGSGSGTEFTLTISSLQPDDFATYYCQQTKEVPWSFGQGTKVEVKRTVAAPSVFIFPPSDEQLKSGTASVVCLLNNFYPREAKVQWKVDNALQSGNSQESVTEQDSKDSTYSLSSTLTLSKADYEKHKVYACEVTHQGLSSPVTKSFNRGEC
# notes: KiH heterodimer
# B2: CD3 × CD33-BspAb117 (bispecific antibody)
# scFv-Fc: NFMLTQPHSVSESPGKTVTISCTRSSGSIASNYVQWYQQRPGSSPTSVIYEDNQRPSGVPDRFSGSIDSSSNSASLTISGLKTEDEADYYCQSYDRSNRVFGCGTKLTVLGGGGSGGGGSGGGGSGGGGSEVQLVESGGGLVKPGGSLRLSCAASGLTFSTYSMNWVRQAPGKCLEWVSSISSSGSYVYYADSVKGRFTMSRDNAKNSLYLQMNSLRAEDTAVYYCARERRELLFDYWGQGTLVTVSSGGGGSDKTHTCPPCPAPEFEGGPSVFLFPPKPKDTLMISRTPEVTCVVVDVSHEDPEVKFNWYVDGVEVHNAKTKPREEQYNSTYRVVSVLTVLHQDWLNGKEYKCKVSNKALPASIEKTISKAKGQPREPQVYTLPPCREEMTKNQVSLWCLVKGFYPSDIAVEWESNGQPENNYKTTPPVLDSDGSFFLYSKLTVDKSRWQQGNVFSCSVMHEALHNHYTQKSLSLSPGK
# heavy: B1 heavy
# light: B1 light
# notes: KiH heterodimer
# B3: CD3 × CD33-BspAb120 (bispecific antibody)
# chain 1: NFMLTQPHSVSESPGKTVAISCTRSSGSIASNYVQWYQQRPGSSPTAVIYEDNQRPSGVPDRFSGSIDSSSNSAFLTISGLKTEDEADYYCQSYDSSNRVFGCGTKLTVLGGGGSGGGGSGGGGSGGGGSEVQLVESGGGLVKPGGSLRLSCAASGFTFSSYSMNWVRQAPGKCLEWVSSISRSSGYIFYADSVKGRFTISRDNAKNSLYLQMNSLRAEDTAVYYCVRERVGAGFDYWGQGTLVTVSSDKTHTCPPCPAPEFEGGPSVFLFPPKPKDTLMISRTPEVTCVVVDVSHEDPEVKFNWYVDGVEVHNAKTKPREEQYNSTYRVVSVLTVLHQDWLNGKEYKCKVSNKALPASIEKTISKAKGQPREPQVYTLPPCREEMTKNQVSLWCLVKGFYPSDIAVEWESNGQPENNYKTTPPVLDSDGSFFLYSKLTVDKSRWQQGNVFSCSVMHEALHNHYTQKSLSLSPGK
# chain 2: B1 heavy
# chain 3: B1 light
# B4: CD3 × CD33-BspAb124 (bispecific antibody)
# chain 1: not shown
# chain 2: B1 heavy
# chain 3: B1 light
# B5: CD3 × CD33-BspAb123 (bispecific antibody)
# chain 1: QTVVTQEPSFSVSPGGTVTLTCGLNSGSVSTSYYPSWYQQTPGQTPRTLIYSTNTRSSGVPDRFSGSILGNKAALTITGAQADDESDYYCVLYMGSGIWVFGCGTKLTVLGGGGSGGGGSGGGGSGGGGSQVQLVQSGAEVKKPGASLKVSCKASGYTFTSYYMHWVRQAPGQCLEWMGIINPSNGNTISAQKFQGRVTMTRDTSTSTVYMEMSSLRSEDTAVYYCVRSWGYYVMDVWGQGTTVTVSSDKTHTCPPCPAPEFEGGPSVFLFPPKPKDTLMISRTPEVTCVVVDVSHEDPEVKFNWYVDGVEVHNAKTKPREEQYNSTYRVVSVLTVLHQDWLNGKEYKCKVSNKALPASIEKTISKAKGQPREPQVYTLPPCREEMTKNQVSLWCLVKGFYPSDIAVEWESNGQPENNYKTTPPVLDSDGSFFLYSKLTVDKSRWQQGNVFSCSVMHEALHNHYTQKSLSLSPGK
# chain 2: B1 heavy
# chain 3: B1 light
# B6: CD3 × CD33-BspAb118 (bispecific antibody)
# scFv-Fc: FMLTQPHSVSESPGKTVTISCTRSSGSIASNYVQWYQQRPGSSPTTVIYEDNQRPSGVPDRFSGSIDSSSNSASLTISGLQTEDEADYYCQSYDSSNRVFGCGTKLTVLGGGGSGGGGSGGGGSGGGGSEVQLVESGGGLVKPGGSLRLSCVASGFTFSRYSMNWVRQAPGKCLEWVSSISSSSRYTYYADSLKGRFIMSRDNAKNSLFLQMNSLRAEDTAVYYCARNLYNALDYWGQGTLVTVSSGGGGSDKTHTCPPCPAPEFEGGPSVFLFPPKPKDTLMISRTPEVTCVVVDVSHEDPEVKFNWYVDGVEVHNAKTKPREEQYNSTYRVVSVLTVLHQDWLNGKEYKCKVSNKALPASIEKTISKAKGQPREPQVYTLPPCREEMTKNQVSLWCLVKGFYPSDIAVEWESNGQPENNYKTTPPVLDSDGSFFLYSKLTVDKSRWQQGNVFSCSVMHEALHNHYTQKSLSLSPGK
# heavy: B1 heavy
# light: B1 light
# notes: KiH heterodimer
# B7: CD3 × CD33-BspAb122 (bispecific antibody)
# chain 1: QTVVTQEPSFSVSPGGTVTLTCGLSSGSVSTSYYPSWYQQTPGQAPRTLIYSTNTRSSGVPDRFSGSILGNKAALTITGAQADDESDYYCVLYMGSGIWVFGCGTKLTVLGGGGSGGGGSGGGGSGGGGSEVQLVESGGGLVKPGGSLRLSCAASGFTVSNYSMNWVRQAPGKCLEWVSSISRSSSYIYYADSVKGRFTISRDNAKNSLFLQMNSLRAEDTAVYYCARERWELLYFDYWGQGTLVTVSSDKTHTCPPCPAPEFEGGPSVFLFPPKPKDTLMISRTPEVTCVVVDVSHEDPEVKFNWYVDGVEVHNAKTKPREEQYNSTYRVVSVLTVLHQDWLNGKEYKCKVSNKALPASIEKTISKAKGQPREPQVYTLPPCREEMTKNQVSLWCLVKGFYPSDIAVEWESNGQPENNYKTTPPVLDSDGSFFLYSKLTVDKSRWQQGNVFSCSVMHEALHNHYTQKSLSLSPGK
# chain 2: B1 heavy
# chain 3: B1 light
# B8: CD3 × CD33-BspAb121 (bispecific antibody)
# chain 1: QTVVTQEPSLTVSPGGTVTLTCASSTGAVTSGYYPNWFQQKPGQAPRALIYSTSNKHSWTPARFSGSLLGGKAALTLSGVQPEDEAEYYCLLYYGGAYVFGCGTKVTVLGGGGSGGGGSGGGGSGGGGSEVQLVESGGGLVKPGGSLRLSCAASGFTFSSYSMNWVRQAPGKCLEWVSSISRSGTYIYYADSVKGRFTISRDNAKNSLYLQMNSLRAEDTAVYYCARERWELLYFDYWGQGTLVTVSSDKTHTCPPCPAPEFEGGPSVFLFPPKPKDTLMISRTPEVTCVVVDVSHEDPEVKFNWYVDGVEVHNAKTKPREEQYNSTYRVVSVLTVLHQDWLNGKEYKCKVSNKALPASIEKTISKAKGQPREPQVYTLPPCREEMTKNQVSLWCLVKGFYPSDIAVEWESNGQPENNYKTTPPVLDSDGSFFLYSKLTVDKSRWQQGNVFSCSVMHEALHNHYTQKSLSLSPGK
# chain 2: B1 heavy
# chain 3: B1 light
# Biological target: T1, human CD3 (TCR/CD3 complex on the cell surface) (human, UniProt P07766 23-207; P04234 22-171; P09693 23-182)
# T1 construct: whole, on cells; Native CD3 on human Pan-T cells or Jurkat wild-type cells; also called CD3 on Pan-T cells; CD3 on Jurkat WT cells
# T1 sequence (P07766 23-207, chain 1 of 3): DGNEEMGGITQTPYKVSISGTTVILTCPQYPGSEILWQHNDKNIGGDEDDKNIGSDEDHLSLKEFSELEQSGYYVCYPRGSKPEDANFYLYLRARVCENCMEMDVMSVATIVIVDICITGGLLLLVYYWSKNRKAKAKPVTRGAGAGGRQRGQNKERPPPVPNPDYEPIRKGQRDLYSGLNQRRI
# T1 sequence (P04234 22-171, chain 2 of 3): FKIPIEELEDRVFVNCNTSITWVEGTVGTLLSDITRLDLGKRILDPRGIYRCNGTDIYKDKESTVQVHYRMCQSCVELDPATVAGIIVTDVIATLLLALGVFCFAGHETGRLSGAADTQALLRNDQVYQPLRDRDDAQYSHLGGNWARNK
# T1 sequence (P09693 23-182, chain 3 of 3): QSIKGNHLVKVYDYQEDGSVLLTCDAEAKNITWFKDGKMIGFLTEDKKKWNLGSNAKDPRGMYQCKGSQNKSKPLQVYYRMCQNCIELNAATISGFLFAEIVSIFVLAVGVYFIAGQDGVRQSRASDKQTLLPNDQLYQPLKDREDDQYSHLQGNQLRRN
# Assay: flow cytometry, Pan-T cells, 1 ug/mL
Binder,% Positive [%],gMFI [gMFI]
B1,31.6,5260
B2,99.6,70300
B3,95.2,27600
B4,1.5,1950
B5,1.8,1860
B6,99.3,331000
B7,1.9,2080
B8,1.5,1920

# Biological target: T1, human CD3 (TCR/CD3 complex on the cell …)
# Assay: flow cytometry, Pan-T cells, 10 ug/mL
Binder,% Positive [%],gMFI [gMFI]
B1,98.2,30000
B2,99.7,195000
B3,99.3,87700
B4,1,1970
B5,1.4,1920
B6,99.8,370000
B7,1,2020
B8,1.5,1920

# Biological target: T1, human CD3 (TCR/CD3 complex on the cell …)
# Assay: flow cytometry, Jurkat WT cells, 1 ug/mL
row,Binder,gMFI [gMFI]
1,B1,3320
2,B2,29700
3,B3,8730
4,B4,1800
5,B5,1680
6,B6,56300
7,B7,1910
8,B8,1920

# Biological target: T1, human CD3 (TCR/CD3 complex on the cell …)
# Assay: flow cytometry, Jurkat WT cells, 10 ug/mL
row,Binder,gMFI [gMFI]
1,B1,9600
2,B2,38600
3,B3,14600
4,B4,1790
5,B5,1710
6,B6,65000
7,B7,1980
8,B8,2040

# Biological target: T1, human CD3 (TCR/CD3 complex on the cell …)
# Assay: flow cytometry, Jurkat WT gMFI over Jurkat KO gMFI, 1 ug/mL
row,Binder,Jurkat WT/KO (Fold) [fold]
1,B1,1.6
2,B2,8.7
3,B3,3.7
4,B4,0.9
5,B5,0.9
6,B6,12.3
7,B7,0.8
8,B8,0.8

# Biological target: T1, human CD3 (TCR/CD3 complex on the cell …)
# Assay: flow cytometry, Jurkat WT gMFI over Jurkat KO gMFI, 10 ug/mL
row,Binder,Jurkat WT/KO (Fold) [fold]
1,B1,4.1
2,B2,10.6
3,B3,6.1
4,B4,0.9
5,B5,0.8
6,B6,13.8
7,B7,1
8,B8,1

# Reference: patent US20260167721A1 (ABLEXIS, published 2026)
